Measured values taken from the supplement of paper PMC7125110.
± gives the standard error. For some of these results: Variants at the floor of the assay were thinned out.

B1: glmS ribozyme (parent)
chain: AUAAAAGCGCCAGAACUACAGAAAUGUAGUUGACGAGGAGGAGGUUUAUCGAAUUUUCGGCGGAUGCCUCCAAA

Assays:
Conditions in all cases: with glucosamine-6-phosphate
glucosamine-6-phosphate [1] = variants of: B1; test: kcat; higher = faster cleavage; RNA array
In short: (§1)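 Weighted Michaelis–Menten fits across concentrations supplied kcat and KM, based on kobs from one- or two-exponential decay fits to normalised per-tile medians. The data came from barcoded ribozyme variants transcribed in situ by E. coli RNA polymerase on sequenced MiSeq chips and tracked at 37 °C by a hybridised Cy3 probe. Glucosamine-6-phosphate (40 μM to 10 mM) in HEPES/KCl/Mg(OAc)2 buffer was flowed in.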

glucosamine-6-phosphate [2] = variants of: B1; test: self-cleavage kobs at 2500 uM GlcN6P; higher = faster cleavage; RNA array
In short: as §1

glucosamine-6-phosphate [3] = variants of: B1; test: self-cleavage kobs at 10000 uM GlcN6P; higher = faster cleavage; RNA array
In short: as §1

glucosamine-6-phosphate [4] = variants of: B1; test: self-cleavage kobs at 40 uM GlcN6P; higher = faster cleavage; RNA array
In short: as §1

glucosamine-6-phosphate [5] = variants of: B1; test: self-cleavage kobs at 640 uM GlcN6P; higher = faster cleavage; RNA array
In short: as §1

glucosamine-6-phosphate [6] = variants of: B1; test: self-cleavage kobs at 160 uM GlcN6P; higher = faster cleavage; RNA array
In short: as §1

glucosamine-6-phosphate [7] = variants of: B1; test: KM; higher = weaker cofactor use; RNA array
In short: as §1

| Variant | kcat (glucosamine-6-phosphate [1]) [s⁻¹] | self-cleavage kobs at 2500 uM GlcN6P (glucosamine-6-phosphate [2]) [s⁻¹] | self-cleavage kobs at 10000 uM GlcN6P (glucosamine-6-phosphate [3]) [s⁻¹] | self-cleavage kobs at 40 uM GlcN6P (glucosamine-6-phosphate [4]) [s⁻¹] | self-cleavage kobs at 640 uM GlcN6P (glucosamine-6-phosphate [5]) [s⁻¹] | self-cleavage kobs at 160 uM GlcN6P (glucosamine-6-phosphate [6]) [s⁻¹] | KM (glucosamine-6-phosphate [7]) [µM] |
| --- | --- | --- | --- | --- | --- | --- | --- |
| G40A A52U | 0.000228 ± 7.9e-05 | 9.49e-05 ± 1.5e-05 | 0.000146 ± 2.3e-05 | – | – | – | – |
| G35C C70G | < 1e-05 | < 1e-05 | – | – | – | – | – |
| G35C C70A | < 1e-05 | – | – | < 1e-05 | < 1e-05 | – | – |
| G35A G43C | < 1e-05 | – | < 1e-05 | – | – | < 1e-05 | – |
| A39U G44U | 0.00106 ± 0.00049 | 0.000955 ± 9.3e-05 | – | 8.33e-05 ± 6.8e-06 | 0.000437 ± 3e-05 | 0.000143 ± 1.3e-05 | – |
| G37A G40C | 0.000207 ± 4.1e-05 | 0.00015 ± 3.5e-05 | 0.000157 ± 3.4e-05 | – | 4.22e-05 ± 1.3e-05 | – | 2180 ± 880 |
| G37A G40U | 0.000159 ± 2e-05 | 8.45e-05 ± 9.3e-06 | 0.000151 ± 4.4e-05 | – | 3.99e-05 ± 7.5e-06 | – | 2050 ± 490 |
| A36U C67G | 1.75e-05 ± 5.9e-06 | – | – | – | – | – | – |
| G38U A53C C70U | < 1e-05 | < 1e-05 | – | – | – | – | – |
| G37U C68G | 2.11e-05 ± 5e-06 | – | – | – | – | – | – |
| A39U U45C | 0.00276 ± 0.0012 | 0.000599 ± 0.00011 | 0.002 ± 0.00034 | – | 0.000268 ± 4.7e-05 | 8.23e-05 ± 1.6e-05 | – |
| G38A U47G C71G | 1.15e-05 ± 1.8e-06 | – | – | – | – | – | – |
| G37U C67G | < 1e-05 | – | < 1e-05 | – | – | – | – |
| G37U C67U | 1.39e-05 ± 4.5e-06 | – | – | < 1e-05 | – | – | – |
| G37U C71G | 1.72e-05 ± 4.2e-06 | – | – | – | – | – | – |
| A39C U45A A53U C70U | 4.71e-05 ± 2.2e-06 | – | 4.34e-05 ± 1.8e-05 | – | – | – | 835 ± 200 |
| A39C C67A | 0.00061 ± 0.00015 | 0.000714 ± 0.00014 | 0.000522 ± 5e-05 | 2.37e-05 ± 5.8e-06 | 0.000144 ± 1.2e-05 | 5.89e-05 ± 7.1e-06 | 1790 ± 670 |
| C34G C61G | < 1e-05 | – | – | < 1e-05 | < 1e-05 | – | – |
| C34G C70U | < 1e-05 | – | < 1e-05 | – | – | – | – |
| G37C U57G | 1.13e-05 ± 4.5e-06 | – | < 1e-05 | – | – | < 1e-05 | – |
| G35A G38A | < 1e-05 | – | – | – | – | – | – |
| G37A A39C | 0.00108 ± 0.0001 | 0.000399 ± 6e-05 | 0.000742 ± 0.00013 | – | 0.000144 ± 1.8e-05 | 3.21e-05 ± 1.1e-05 | 4350 ± 560 |
| G37A A39G | 0.00599 ± 0.00079 | 0.00235 ± 0.0003 | 0.00437 ± 0.00039 | 6.85e-05 ± 7.9e-06 | 0.00068 ± 0.00012 | 0.000243 ± 4.5e-05 | 3900 ± 740 |
